This note sets out measurements from US20020076800.

The data set has as its target T1, Human α2Macroglobulin, P01023.
T1 chain: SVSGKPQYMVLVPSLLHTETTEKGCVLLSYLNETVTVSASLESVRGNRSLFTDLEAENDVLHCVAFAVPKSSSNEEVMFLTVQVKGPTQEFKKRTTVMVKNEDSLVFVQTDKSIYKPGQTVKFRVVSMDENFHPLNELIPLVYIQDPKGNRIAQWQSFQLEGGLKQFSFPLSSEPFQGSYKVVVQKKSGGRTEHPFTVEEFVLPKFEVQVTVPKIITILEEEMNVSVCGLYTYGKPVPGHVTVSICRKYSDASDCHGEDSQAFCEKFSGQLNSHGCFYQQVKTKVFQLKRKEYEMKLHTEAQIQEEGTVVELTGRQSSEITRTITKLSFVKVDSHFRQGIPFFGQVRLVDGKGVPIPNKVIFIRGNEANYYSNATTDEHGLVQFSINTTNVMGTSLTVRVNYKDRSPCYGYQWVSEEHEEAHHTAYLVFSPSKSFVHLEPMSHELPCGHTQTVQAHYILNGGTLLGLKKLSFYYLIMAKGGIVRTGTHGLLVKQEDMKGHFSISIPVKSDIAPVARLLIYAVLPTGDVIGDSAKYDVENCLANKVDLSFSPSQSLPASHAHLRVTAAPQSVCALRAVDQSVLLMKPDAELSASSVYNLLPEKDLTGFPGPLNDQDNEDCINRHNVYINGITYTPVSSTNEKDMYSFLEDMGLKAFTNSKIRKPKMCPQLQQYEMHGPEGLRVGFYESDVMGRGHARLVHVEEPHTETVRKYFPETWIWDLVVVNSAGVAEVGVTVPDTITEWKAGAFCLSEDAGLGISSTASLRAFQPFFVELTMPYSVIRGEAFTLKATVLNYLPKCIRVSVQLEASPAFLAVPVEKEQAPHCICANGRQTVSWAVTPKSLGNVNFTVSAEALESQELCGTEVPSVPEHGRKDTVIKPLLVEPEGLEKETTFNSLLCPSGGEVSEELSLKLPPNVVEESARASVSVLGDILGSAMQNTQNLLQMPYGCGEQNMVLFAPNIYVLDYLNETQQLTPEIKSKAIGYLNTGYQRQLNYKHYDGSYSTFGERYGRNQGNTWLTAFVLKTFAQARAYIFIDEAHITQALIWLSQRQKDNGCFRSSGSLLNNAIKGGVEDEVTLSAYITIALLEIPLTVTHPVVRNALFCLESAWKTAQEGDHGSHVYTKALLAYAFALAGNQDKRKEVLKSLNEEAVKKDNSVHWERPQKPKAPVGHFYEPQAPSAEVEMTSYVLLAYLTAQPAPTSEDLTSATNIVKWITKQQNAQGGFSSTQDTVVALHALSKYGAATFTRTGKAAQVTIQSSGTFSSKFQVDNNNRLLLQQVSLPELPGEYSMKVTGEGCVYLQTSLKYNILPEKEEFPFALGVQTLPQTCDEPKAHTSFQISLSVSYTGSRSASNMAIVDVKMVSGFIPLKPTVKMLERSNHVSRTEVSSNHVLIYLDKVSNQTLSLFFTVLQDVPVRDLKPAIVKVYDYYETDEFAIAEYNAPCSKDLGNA

B1: HipHum 35 construct no.2 (recombinant HH35 protein, catalytic domain only, with a six histidine tag at the amino terminal) (protein)
chain: HHHHHHRRSPRAPLSLSRRGWQPRGYPDGGAAQAFSKRTLSWRLLGEALSSQLSVADQRRIVALAFRMWSEVTPLDFREDLAAPGAAVDIKLGFGRGRHLGCPRAFDGSGQEFAHAWRLGDIHFDDDEHFTPPTSDTGISLLKVAVHEIGHVLGLPHTYRTGSIMQPNYIPQEPAFELDWSDRKAIQKLY
Take B1: the “α2Macroglobulin trapping (protein gel), evidence for protease activity” value is reported as “αmacroglobulin capture by Hiphum 35, demonstrating that Hiphum 35 has protease activity”.
